Entries after “also recorded” stand apart in the source; their conditions may differ.
Assays:
[1] = test system: TLR2, TLR4 and CD14 on THP-1 cells (IL-12p40, TNFα, IL-10 production); experiment: Cytokine production by THP-1 cells pre-treated with mAbs to TLR2, TLR4 or CD14 and cultured with M. vaccae derivatives (ELISA); assay type: cell-based, human; details: mAb pre-treatment 60 minutes, 0.32-1000 μg/mL; stimulus 5 μg/mL, 24 hours
Experimental: In subsequent experiments, the effect of antibodies to TLR2, TLR4 and CD14 on the production of IL-12p40, IL-10 and TNF-α in THP-1 cells in response to M. vaccae derivatives was examined as follows.
Prior to culture with M. vaccae derivatives, 50 μL of THP-1 cells in cRPMI-10 were pre-treated in duplicate microplate wells with 50 μL of serially diluted Functional Grade mabs to human TLR2 (clone TL2.1, IgG2a isotype, eBioscience cat. no. 16-9922-82), TLR4 (clone HTA125, IgG2a isotype, eBioscience cat. no. 16-9927-82), or CD14 (clone RM052, IgG2a isotype, Coulter cat. no. IM0643), with a cocktail of all three antibodies or with control mAb (clone AcV1, IgG2a isotype, eBioscience cat. no. 16-4724-85), with each mAb used at a final concentration of 1000 μg/mL, 200 μg/mL, 40 μg/mL, 8.0 μg/mL, 1.60 μg/mL, or 0.32 μg/mL, or with no mAb. Pretreatment of cells with mAbs was for 60 minutes in a water-jacketed, humidified incubator at 37° C. supplied with 5% CO2 in air.
At the end of the 24-hour incubation period, the microplates were centrifuged at 200×g for 5 minutes and the supernatants collected and transferred to a sterile 96-well round-bottom plate.
IL-12p40, TNFα, and IL-10 content in the microculture supernatants was determined by sandwich ELISA using commercially available sets according to the manufacturer's recommendations. […]

[2] = test system: CD69 on αβT cells, γδT cells and NK cells; assay type: cell-based, human
[3] = test system: IL-1β, TNF-α, IL-12 and IFN-γ production in PBMC; experiment: Cytokine production in PBMC from normal donors (ELISA); assay type: cell-based, human
[4] = test system: CD40, CD80 and CD86 on B cells; experiment: CD40, CD80 and CD86 expression on B cells (3 color flow cytometry); assay type: cell-based, human; details: 20 ug/ml, 48 hours, vs non-stimulated cells
Description: (§1) Stimulated cells were harvested and analyzed for up-regulation of CD40, CD80 and CD86 using 3 color flow cytometric analysis. Tables 16, 17 and 18 show the fold increase in mean fluorescence intensity from control (non-stimulated cells) for dendritic cells, monocytes, and B cells, respectively.

[5] = test system: CD83 and CD80 on purified dendritic cells; experiment: Dendritic cell maturation: CD83 and CD80 expression (flow cytometry); assay type: cell-based; details: GV-23 20 μg/ml or LPS 10 μg/ml, 20 hour, mean ± SD (n = 3)
Experimental: The effect of the recombinant M. vaccae protein GV-23 on the maturation and function of dendritic cells was examined as follows.
Purified dendritic cells (5×10^4−10^5 cells/ml) were stimulated with GV-23 (20 μg/ml) or LPS (10 μg/ml) as a positive control. Cells were cultured for 20 hour and then analyzed for CD83 (a maturation marker) and CD80 expression by flow cytometry. Non-stimulated cells were used as a negative control.

[6] = test system: CD40, CD80 and CD86 on dendritic cells; assay type: cell-based, human
[7] = test system: IFNγ production by lymph node cells; experiment: IFNγ production by lymph node cells from GV protein-immunized mice (enzyme-linked immunoassay); assay type: cell-based, female BALB/cByJ mice; details: lymph node cells of mice immunized with the same GV protein
Experimental: (§2) The immunogenicity of Mycobacterium vaccae recombinant proteins (referred to herein as GV recombinant proteins) was tested by injecting female BALB/cByJ mice in each hind foot-pad with 10 μg of recombinant GV proteins emulsified in incomplete Freund's adjuvant (IFA). Control mice received phosphate buffered saline in IFA. The draining popliteal lymph nodes were excised 10 days later and the cells obtained therefrom were stimulated with the immunizing GV protein and assayed for proliferation by measuring the uptake of tritiated thymidine. The amount of interferon gamma (IFNγ) produced and secreted by these cells into the culture supernatants was assayed by standard enzyme-linked immunoassay.

[8] = test system: CD40, CD80 and CD86 on monocytes; experiment: CD40, CD80 and CD86 expression on monocytes (3 color flow cytometry); assay type: cell-based, human; details: 20 ug/ml, 48 hours, vs non-stimulated cells
Description: as §1

[9] = test system: popliteal lymph node cells; experiment: Proliferation of lymph node cells from GV protein-immunized mice; assay type: cell-based, female BALB/cByJ mice; details: lymph node cells of mice immunized with 10 μg of the same GV protein in IFA
Experimental: as §2

[10] = test system: dendritic cells with allogeneic T cells; experiment: Dendritic cell mixed lymphocyte reaction (MLR) assay; assay type: cell-based; details: 20 μg/ml for 18-20 hours, then allogeneic T cells
Experimental: The ability of GV-23 to enhance dendritic cell function as antigen presenting cells was determined by mixed lymphocyte reaction (MLR) assay. Purified dendritic cells were cultured in medium alone or with GV-23 (20 μg/ml) for 18-20 hours and then stimulated with allogeneic T cells (2×10^5 cells/well). After 3 days of incubation, (^3H)-thymidine was added. Cells were harvested 1 day later and the uptake of radioactivity was measured.

[11] = dendritic cells, 20 ug/ml, 48 hours, vs non-stimulated cells
[12] = Dose of GV protein used in vitro 2 μg/ml
[13] = Dose of GV protein used in vitro 50 μg/ml

TLR2 mAb: Functional Grade mAb to human TLR2, clone TL2.1, IgG2a isotype (eBioscience) [reference compound]
inhibition of M. vaccae-, AVAC- and DD-M. vaccae-induced production of IL-12p40 by THP-1 cells [1]: inhibited by TLR2 and CD14 mAbs in a dose-dependent fashion

B1: GV-23: recombinant M. vaccae antigen, amino acid sequence SEQ ID NO: 38 (protein, listed as Mycobacterium vaccae)
chain: VIEIDHVTKRFGDYLAVADADFSIAPGEFFSMLGPSGCGKTTTLRMIAGFETPTEGAIRLEGADVSRTPPNKRNVNTVFQHYALFPHMTVWDNVAYGPRSKKLGKGEVRKRVDELLEIVRLTEFAERRPAQLSGGQQQRVALARALVNYPSALLLDEPLGALDLKLRHVMQFELKRIQREVGITFIYVTHDQEEALTMSDRIAVMNAGNVEQIGSPTEIYDRPATVFVASFIGQANLWAGRCTGRSNRDYVEIDVLGSTLKARPGETTIEPGGHATLMVRPERIRVTPGSQDAPTGDVACVRATVTDLTFQGPVVRLSLAAPDDSTVIAHVGPEQDLPLLRPGDDVYVSWAPEASLVLPGDDIPTTEDLEEMLDDS
CD69 expression on NK cells, comparison with adjuvants [2]: induced CD69 expression on NK cells
percentage of αβT cells expressing CD69 ([2]; PBMC from normal donors, 20 ug/ml, 24 hours, control 3.8): 5.8%
percentage of NK cells expressing CD69 ([2]; PBMC from normal donors, 20 ug/ml, 24 hours, control 4.8): 46.8%
percentage of γδT cells expressing CD69 ([2]; PBMC from normal donors, 20 ug/ml, 24 hours, control 6.2): 10.0%
production of IL-1β, TNF-α, IL-12 and IFN-γ by PBMC [3]: stimulate the production of IL-1β, TNF-α and IL-12; also recorded: induced significant levels of the four cytokines examined
IL-1β production by PBMC relative to known adjuvants ([3]; GV-23 20 μg/ml): higher levels of IL-1β production being seen with GV-23 than with any of the known adjuvants
CD40 expression, fold increase in mean fluorescence intensity from control [4]: 1.2 fold
CD80 expression, fold increase in mean fluorescence intensity from control [4]: 1.1 fold
CD86 expression, fold increase in mean fluorescence intensity from control [4]: 1.4 fold
% CD80-positive dendritic cells ([5]; control 9 ± 6.6): 24.7 ± 14.2%
% CD83-positive dendritic cells ([5]; control 15 ± 8): 35 ± 13.2%
CD40, CD80 and CD86 expression in dendritic cells, comparison with adjuvants [6]: significant up-regulation of CD40, CD80 and CD86
CD40, CD80 and CD86 expression on dendritic cells ([6]; 20 ug/ml, 48 hours, T cell-depleted PBMC): highest levels of expression
CD40 expression, fold increase in mean fluorescence intensity from control [6, 11]: 6.0 fold
CD80 expression, fold increase in mean fluorescence intensity from control [6, 11]: 4.5 fold
CD86 expression, fold increase in mean fluorescence intensity from control [6, 11]: 1.8 fold
IFNγ [7, 12]: 9.17 ± 1.51 ng/mL
IFNγ ([7]; Dose of GV protein used in vitro 10 μg/ml): 30.70 ± 4.48 ng/mL
IFNγ [7, 13]: 59.67 ± 14.88 ng/mL
CD40 expression, fold increase in mean fluorescence intensity from control [8]: 2.3 fold
CD80 expression, fold increase in mean fluorescence intensity from control [8]: 1.5 fold
CD86 expression, fold increase in mean fluorescence intensity from control [8]: 0.7 fold
Proliferation (cpm) ([9]; Dose of GV protein used in vitro 0.08 μg/ml): 7,393 ± 2,188 cpm
Proliferation (cpm) [9, 12]: 15,423 ± 2,858 cpm
Proliferation (cpm) [9, 13]: 35,598 ± 1,330 cpm
dendritic cell mixed lymphocyte reaction ((3H)-thymidine uptake) [10]: enhances dendritic cell mixed lymphocyte reaction

Reference: US20030147861A1, “Compounds and methods for the modulation of immune responses” (Genesis Research and Development Corporation Limited, priority 2001, published 2003)
